Measured values from paper PMC9896810, “Crk proteins activate the Rap1 guanine nucleotide exchange factor C3G by segregated adaptor-dependent and -independent mechanisms” (Cell Communication and Signaling : CCS, 2023).
Residue numbers refer to the chain shown, from its start. Names may count otherwise. No end group written: not given here. fluorescein = N-terminal fluorescein probe

Columns and labels:
CrkL-W160S = target: T1, CrkL-W160S (human, UniProt P46109 1-303, W160S); experiment: fluorescence polarisation; fluorescein-labelled peptide at 0.2 µM titrated with CrkL or CrkL W160S; 20 mM Tris-HCl, 150 mM NaCl, pH 7.5, 0.1 mg/ml BSA; 1:1 binding model; apparent kd; conditions: both partners purified
T1 construct: human CrkL, residues 1-303, point mutant W160S, in pETEV15b; source: E. coli BL21 (DE3), purified (IMAC, TEV digestion, SEC); not shown: His, N-terminal, cleaved
T1 sequence (P46109 whole entry W160S, the tested form may be a part): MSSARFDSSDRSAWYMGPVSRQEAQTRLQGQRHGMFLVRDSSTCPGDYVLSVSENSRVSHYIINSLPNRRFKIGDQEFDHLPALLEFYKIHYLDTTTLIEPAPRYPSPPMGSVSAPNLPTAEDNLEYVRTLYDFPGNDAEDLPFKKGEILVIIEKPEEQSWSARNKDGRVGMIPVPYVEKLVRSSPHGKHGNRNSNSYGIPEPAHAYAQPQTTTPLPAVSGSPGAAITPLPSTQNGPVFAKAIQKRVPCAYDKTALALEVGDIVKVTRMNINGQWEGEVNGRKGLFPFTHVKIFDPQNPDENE

CrkL (full-length) = target: T2, CrkL (full-length) (human, UniProt P46109 1-303); experiment: as above; conditions: both partners purified
T2 construct: human CrkL, residues 1-303, in pETEV15b; also called Crk-like protein; source: E. coli BL21 (DE3), purified (IMAC, TEV digestion, SEC); not shown: His, N-terminal, cleaved
T2 sequence (P46109 whole entry, the tested form may be a part): as the sequence (P46109 whole entry W160S, the tested form may be a part) above, with S160W counted along it

[1] = target: T3, C3G (full-length, residues 4-1077) (human, UniProt Q13905-1 4-1077); experiment: ITC; C3G or pC3G in the cell titrated with the Crk protein, 25 °C, 300 mM NaCl, pH 7.5; global fit of three titrations with SEDPHAT, three symmetric binding sites, microscopic kd; conditions: both partners purified
T3 construct: also called C3G WT; RapGEF1; source: E. coli BL21 (DE3), purified (IMAC, TEV digestion, reversed IMAC, SEC); not shown: His, N-terminal, cleaved; Halo, N-terminal, cleaved
T3 sequence (looked up): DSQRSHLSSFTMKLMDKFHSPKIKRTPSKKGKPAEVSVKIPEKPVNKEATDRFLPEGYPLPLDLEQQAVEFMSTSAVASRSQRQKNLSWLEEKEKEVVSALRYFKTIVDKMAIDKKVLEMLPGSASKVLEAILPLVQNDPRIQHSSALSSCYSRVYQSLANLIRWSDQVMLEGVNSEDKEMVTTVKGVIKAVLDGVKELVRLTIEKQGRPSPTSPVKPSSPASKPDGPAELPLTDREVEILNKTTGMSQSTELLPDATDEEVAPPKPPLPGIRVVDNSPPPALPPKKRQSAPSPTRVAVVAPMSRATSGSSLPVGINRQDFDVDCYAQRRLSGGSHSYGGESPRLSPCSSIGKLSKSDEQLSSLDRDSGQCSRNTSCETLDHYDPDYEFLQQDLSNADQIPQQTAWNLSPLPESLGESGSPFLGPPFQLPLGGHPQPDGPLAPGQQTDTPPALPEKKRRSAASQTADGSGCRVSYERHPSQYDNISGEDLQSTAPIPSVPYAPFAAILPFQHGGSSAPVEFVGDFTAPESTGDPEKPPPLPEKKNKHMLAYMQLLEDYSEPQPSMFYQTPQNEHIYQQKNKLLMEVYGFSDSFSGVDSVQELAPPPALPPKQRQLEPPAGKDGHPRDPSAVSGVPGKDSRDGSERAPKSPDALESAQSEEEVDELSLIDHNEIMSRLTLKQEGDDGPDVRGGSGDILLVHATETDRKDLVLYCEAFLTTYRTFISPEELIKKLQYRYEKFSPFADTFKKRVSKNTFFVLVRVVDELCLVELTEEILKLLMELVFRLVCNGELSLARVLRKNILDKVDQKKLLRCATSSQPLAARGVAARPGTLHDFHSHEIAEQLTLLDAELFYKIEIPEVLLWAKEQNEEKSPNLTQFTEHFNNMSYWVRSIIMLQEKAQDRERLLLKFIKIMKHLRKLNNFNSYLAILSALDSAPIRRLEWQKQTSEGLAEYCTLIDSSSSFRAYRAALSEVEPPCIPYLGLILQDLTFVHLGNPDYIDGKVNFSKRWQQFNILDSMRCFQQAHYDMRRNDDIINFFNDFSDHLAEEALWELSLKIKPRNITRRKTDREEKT

[2] = target: T4, Src-phosphorylated C3G (pC3G), wild type (human, UniProt Q13905-1 4-1077, phosphotyrosines (phosphorylated in vitro by Src; sites not stated)); experiment: cell-based or functional assay
T4 sequence (looked up): T3 sequence (looked up)

[3] = target: T5, C3G full-length wild type (human, isoform a, residues 4-1077) (human, UniProt Q13905-1 4-1077); experiment: cell-based or functional assay
T5 sequence (looked up): T3 sequence (looked up)

[4] = target: T6, CrkL, full-length (human) (human, UniProt P46109 1-303); experiment: fluorescence polarisation; fluorescein peptides at 0.2 µM titrated with CrkL; 20 mM Tris-HCl, 150 mM NaCl, pH 7.5, 0.1 mg/ml BSA; 1:1 model; apparent kd; conditions: both partners purified
T6 construct: Monomer by sedimentation velocity and DLS (theoretical mass 33.7 kDa); Purification 'in a similar manner' as C3G would include TEV cleavage of the tag; also called Crk-like protein; wild type CrkL; source: E. coli BL21 (DE3), purified (His-tagged, purified in a similar manner as C3G)

[5] = target: T6, CrkL, full-length (human); experiment: ITC; single-PRM mutants of C3G in the cell titrated with full-length CrkL or CrkL-SH3N; 25 °C; 1:1 model in SEDPHAT; N is the competent fraction of C3G; conditions: both partners purified

B1: P1 (Fluo-280-293) (peptide)
peptide: fluorescein-NGPPPALPPKKRQS
notes: P1 Pro-rich motif of human C3G, residues 280-293; also called P1 peptide of C3G; source: synthetic peptide (custom synthesized, Thermo Scientific)
CrkL-W160S
  Kd: ~490 µM
CrkL (full-length)
  Kd: 1.4 µM

B2: P2 (Fluo-450-463) (peptide)
peptide: fluorescein-TDTPPALPEKKRRS
notes: P2 Pro-rich motif of human C3G, residues 450-463; also called P2 peptide of C3G; source: synthetic peptide (custom synthesized, Thermo Scientific)
CrkL-W160S
  Kd: > 4000 µM
CrkL (full-length)
  Kd: 2.2 µM

B3: P3 (Fluo-537-550) (peptide)
peptide: fluorescein-PEKPPPLPEKKNKH
notes: P3 Pro-rich motif of human C3G, residues 537-550; also called P3 peptide of C3G; source: synthetic peptide (custom synthesized, Thermo Scientific)
CrkL-W160S
  Kd: ~425 µM
CrkL (full-length)
  Kd: 2.2 µM

B4: P4 (Fluo-605-618) (peptide)
peptide: fluorescein-LAPPPALPPKQRQL
notes: P4 Pro-rich motif of human C3G, residues 605-618; also called P4 peptide of C3G; source: synthetic peptide (custom synthesized, Thermo Scientific)
CrkL-W160S
  Kd: ~415 µM
CrkL (full-length)
  Kd: 3 µM

B5: CrkL-SH2-SH3N (domain or fragment, human, UniProt P46109 1-182, looked up)
chain: MSSARFDSSDRSAWYMGPVSRQEAQTRLQGQRHGMFLVRDSSTCPGDYVLSVSENSRVSHYIINSLPNRRFKIGDQEFDHLPALLEFYKIHYLDTTTLIEPAPRYPSPPMGSVSAPNLPTAEDNLEYVRTLYDFPGNDAEDLPFKKGEILVIIEKPEEQWWSARNKDGRVGMIPVPYVEKLV
notes: human CrkL, SH2-SH3N, residues 1-182, in pETEV15b; also called CrkL-SH2N-SH3N; source: E. coli BL21 (DE3), purified (IMAC, TEV digestion, SEC); not shown: His, N-terminal, cleaved
[1]
  Kd: 2.2 µM

B6: CrkL-SH3N-SH3C (domain or fragment, human, UniProt P46109 125-303, looked up)
chain: LEYVRTLYDFPGNDAEDLPFKKGEILVIIEKPEEQWWSARNKDGRVGMIPVPYVEKLVRSSPHGKHGNRNSNSYGIPEPAHAYAQPQTTTPLPAVSGSPGAAITPLPSTQNGPVFAKAIQKRVPCAYDKTALALEVGDIVKVTRMNINGQWEGEVNGRKGLFPFTHVKIFDPQNPDENE
notes: human CrkL, SH3N-SH3C, residues 125-303, in pETEV15b; source: E. coli BL21 (DE3), purified (IMAC, TEV digestion, SEC); not shown: His, N-terminal, cleaved
[1]
  Kd: 1.1 µM

B7: CrkII (full-length) (natural protein, human, UniProt P46108-1 1-304, looked up)
chain: MAGNFDSEERSSWYWGRLSRQEAVALLQGQRHGVFLVRDSSTSPGDYVLSVSENSRVSHYIINSSGPRPPVPPSPAQPPPGVSPSRLRIGDQEFDSLPALLEFYKIHYLDTTTLIEPVSRSRQGSGVILRQEEAEYVRALFDFNGNDEEDLPFKKGDILRIRDKPEEQWWNAEDSEGKRGMIPVPYVEKYRPASASVSALIGGNQEGSHPQPLGGPEPGPYAQPSVNTPLPNLQNGPIYARVIQKRVPNAYDKTALALEVGELVKVTKINVSGQWEGECNGKRGHFPFTHVRLLDQQNPDEDFS
notes: human CrkII, residues 1-304, in pETEV15b; source: E. coli BL21 (DE3), purified (IMAC, TEV digestion, SEC); not shown: His, N-terminal, cleaved
[1]
  Kd: 2.7 µM

B8: CrkL-SH2-SH3N (residues 1-182) (domain or fragment, human, UniProt P46109 1-182, looked up)
chain: B5 chain
[2]
  AC50 of the dose-response activation of the GEF activity of pC3G (0.2 µM) on Rap1b:mant-dGDP: 4.9 µM
  kmax of the dose-response activation of the GEF activity of pC3G (0.2 µM) on Rap1b:mant-dGDP: 0.0377 s^-1 µM^-1
[3]
  AC50 of the dose-response activation of the GEF activity of C3G (1 µM) on Rap1b:mant-dGDP: 15.8 µM
  kmax of the dose-response activation of the GEF activity of C3G (1 µM) on Rap1b:mant-dGDP: 8400 M⁻¹ s⁻¹

B9: CrkL-SH3N-SH3C (residues 125-303) (domain or fragment, human, UniProt P46109 125-303, looked up)
chain: B6 chain
[2]
  AC50 of the dose-response activation of the GEF activity of pC3G (0.2 µM) on Rap1b:mant-dGDP: 4.5 µM
  kmax of the dose-response activation of the GEF activity of pC3G (0.2 µM) on Rap1b:mant-dGDP: 0.0134 s^-1 µM^-1
[3]
  AC50 of the dose-response activation of the GEF activity of C3G (1 µM) on Rap1b:mant-dGDP: 19.8 µM
  kmax of the dose-response activation of the GEF activity of C3G (1 µM) on Rap1b:mant-dGDP: 12900 M⁻¹ s⁻¹

B10: CrkII (human) (natural protein, UniProt P46108-1 1-304, looked up)
chain: B7 chain
[2]
  AC50 of the dose-response activation of the GEF activity of pC3G (0.2 µM) on Rap1b:mant-dGDP: 2.6 µM
  kmax of the dose-response activation of the GEF activity of pC3G (0.2 µM) on Rap1b:mant-dGDP: 0.0223 s^-1 µM^-1
[3]
  AC50 of the dose-response activation of the GEF activity of C3G (1 µM) on Rap1b:mant-dGDP: 65.7 µM
  kmax of the dose-response activation of the GEF activity of C3G (1 µM) on Rap1b:mant-dGDP: 7200 M⁻¹ s⁻¹

B11: C3G P1 peptide (residues 280-293), fluorescein-labeled (peptide, UniProt Q13905-1 280-293, looked up)
peptide: fluorescein-NSPPPALPPKKRQS
notes: Pro-rich motif P1 of human C3G, residues 280-293; source: synthetic peptide (custom synthesized, Thermo Scientific)
[4]
  binding result: binds

B12: C3G-PAAA (natural protein)
chain: DSQRSHLSSFTMKLMDKFHSPKIKRTPSKKGKPAEVSVKIPEKPVNKEATDRFLPEGYPLPLDLEQQAVEFMSTSAVASRSQRQKNLSWLEEKEKEVVSALRYFKTIVDKMAIDKKVLEMLPGSASKVLEAILPLVQNDPRIQHSSALSSCYSRVYQSLANLIRWSDQVMLEGVNSEDKEMVTTVKGVIKAVLDGVKELVRLTIEKQGRPSPTSPVKPSSPASKPDGPAELPLTDREVEILNKTTGMSQSTELLPDATDEEVAPPKPPLPGIRVVDNSPPPALPPKKRQSAPSPTRVAVVAPMSRATSGSSLPVGINRQDFDVDCYAQRRLSGGSHSYGGESPRLSPCSSIGKLSKSDEQLSSLDRDSGQCSRNTSCETLDHYDPDYEFLQQDLSNADQIPQQTAWNLSPLPESLGESGSPFLGPPFQLPLGGHPQPDGPLAPGQQTDTAAAAAEAKRRSAASQTADGSGCRVSYERHPSQYDNISGEDLQSTAPIPSVPYAPFAAILPFQHGGSSAPVEFVGDFTAPESTGDPEKAAPAAEAKNKHMLAYMQLLEDYSEPQPSMFYQTPQNEHIYQQKNKLLMEVYGFSDSFSGVDSVQELAPAAAAAPAQRQLEPPAGKDGHPRDPSAVSGVPGKDSRDGSERAPKSPDALESAQSEEEVDELSLIDHNEIMSRLTLKQEGDDGPDVRGGSGDILLVHATETDRKDLVLYCEAFLTTYRTFISPEELIKKLQYRYEKFSPFADTFKKRVSKNTFFVLVRVVDELCLVELTEEILKLLMELVFRLVCNGELSLARVLRKNILDKVDQKKLLRCATSSQPLAARGVAARPGTLHDFHSHEIAEQLTLLDAELFYKIEIPEVLLWAKEQNEEKSPNLTQFTEHFNNMSYWVRSIIMLQEKAQDRERLLLKFIKIMKHLRKLNNFNSYLAILSALDSAPIRRLEWQKQTSEGLAEYCTLIDSSSSFRAYRAALSEVEPPCIPYLGLILQDLTFVHLGNPDYIDGKVNFSKRWQQFNILDSMRCFQQAHYDMRRNDDIINFFNDFSDHLAEEALWELSLKIKPRNITRRKTDREEKT
[5]
  Kd: ~1 µM

B13: C3G-APAA (natural protein)
chain: B12 chain with P280A, P281A, L283A, P284A, K286A, A450P, A451P, A453L, A454P, A456K
[5]
  Kd: ~1 µM
